T1: Flag-RIG-I, purified from transfected HEK293 cells (human, UniProt O95786 1-925)
T1 construct: RIG-I, human; Flag-RIG-I plasmid; also called Flag-tagged RIG-I; recombinant RIG-I
T1 sequence (looked up): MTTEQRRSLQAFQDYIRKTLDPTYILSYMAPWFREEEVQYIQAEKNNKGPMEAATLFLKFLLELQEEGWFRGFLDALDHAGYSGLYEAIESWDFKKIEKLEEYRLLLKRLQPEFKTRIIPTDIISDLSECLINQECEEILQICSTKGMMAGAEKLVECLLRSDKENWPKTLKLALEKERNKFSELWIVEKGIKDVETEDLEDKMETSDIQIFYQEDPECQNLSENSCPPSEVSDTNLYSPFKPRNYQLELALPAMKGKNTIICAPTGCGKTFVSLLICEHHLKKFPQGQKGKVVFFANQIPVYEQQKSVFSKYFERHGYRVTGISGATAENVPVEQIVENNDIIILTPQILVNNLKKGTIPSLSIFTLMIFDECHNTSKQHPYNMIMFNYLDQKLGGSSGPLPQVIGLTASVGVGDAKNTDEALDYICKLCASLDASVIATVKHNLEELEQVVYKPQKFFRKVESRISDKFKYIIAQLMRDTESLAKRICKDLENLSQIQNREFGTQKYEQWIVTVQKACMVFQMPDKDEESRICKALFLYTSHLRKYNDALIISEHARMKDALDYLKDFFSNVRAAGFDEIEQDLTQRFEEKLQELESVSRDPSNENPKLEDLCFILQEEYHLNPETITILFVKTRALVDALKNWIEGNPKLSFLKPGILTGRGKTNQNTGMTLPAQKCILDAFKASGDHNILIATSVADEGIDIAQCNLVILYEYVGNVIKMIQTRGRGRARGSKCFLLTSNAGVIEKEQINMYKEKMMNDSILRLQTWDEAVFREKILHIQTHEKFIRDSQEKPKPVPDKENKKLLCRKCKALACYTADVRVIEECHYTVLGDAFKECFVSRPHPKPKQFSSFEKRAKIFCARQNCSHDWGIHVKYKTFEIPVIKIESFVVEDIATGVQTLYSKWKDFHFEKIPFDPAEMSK

T2: recombinant MDA5 (280-1,025) (pGEX6p-1-GST-MDA5 (280-1025)) (human, UniProt Q9BYX4 280-1025)
T2 construct: MDA5, human, residues 280-1025; cloned in pGEX-6p-1; No cleavage of GST is told; the MST methods call the same preparation GST-MDA5; source: E. coli BL21, purified (GST resins, eluted with reduced glutathione)
T2 sequence (looked up): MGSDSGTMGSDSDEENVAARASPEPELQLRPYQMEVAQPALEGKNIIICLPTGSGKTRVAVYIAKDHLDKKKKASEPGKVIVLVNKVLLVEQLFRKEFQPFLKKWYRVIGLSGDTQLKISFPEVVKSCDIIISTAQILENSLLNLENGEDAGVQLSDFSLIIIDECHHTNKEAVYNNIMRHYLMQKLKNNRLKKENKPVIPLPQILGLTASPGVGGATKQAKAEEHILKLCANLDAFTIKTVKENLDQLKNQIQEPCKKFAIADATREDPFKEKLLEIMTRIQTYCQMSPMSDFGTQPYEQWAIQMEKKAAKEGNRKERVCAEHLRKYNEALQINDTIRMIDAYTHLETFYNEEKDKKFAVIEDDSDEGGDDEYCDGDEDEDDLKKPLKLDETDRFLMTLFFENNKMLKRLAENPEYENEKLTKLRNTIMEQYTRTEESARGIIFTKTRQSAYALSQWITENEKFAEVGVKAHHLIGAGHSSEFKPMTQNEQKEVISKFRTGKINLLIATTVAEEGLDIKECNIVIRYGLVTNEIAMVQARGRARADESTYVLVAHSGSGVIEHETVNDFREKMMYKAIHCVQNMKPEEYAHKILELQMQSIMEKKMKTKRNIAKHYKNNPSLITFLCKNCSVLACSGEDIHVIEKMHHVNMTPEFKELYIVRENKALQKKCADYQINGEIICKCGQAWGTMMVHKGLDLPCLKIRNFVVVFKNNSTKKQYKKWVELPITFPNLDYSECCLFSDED

B1: recombinant hnRNPM (pGEX6p-1-GST-hnRNPM) (natural protein, human, UniProt P52272 1-730, looked up)
chain: MAAGVEAAAEVAATEIKMEEESGAPGVPSGNGAPGPKGEGERPAQNEKRKEKNIKRGGNRFEPYANPTKRYRAFITNIPFDVKWQSLKDLVKEKVGEVTYVELLMDAEGKSRGCAVVEFKMEESMKKAAEVLNKHSLSGRPLKVKEDPDGEHARRAMQKVMATTGGMGMGPGGPGMITIPPSILNNPNIPNEIIHALQAGRLGSTVFVANLDYKVGWKKLKEVFSMAGVVVRADILEDKDGKSRGIGTVTFEQSIEAVQAISMFNGQLLFDRPMHVKMDERALPKGDFFPPERPQQLPHGLGGIGMGLGPGGQPIDANHLNKGIGMGNIGPAGMGMEGIGFGINKMGGMEGPFGGGMENMGRFGSGMNMGRINEILSNALKRGEIIAKQGGGGGGGSVPGIERMGPGIDRLGGAGMERMGAGLGHGMDRVGSEIERMGLVMDRMGSVERMGSGIERMGPLGLDHMASSIERMGQTMERIGSGVERMGAGMGFGLERMAAPIDRVGQTIERMGSGVERMGPAIERMGLSMERMVPAGMGAGLERMGPVMDRMATGLERMGANNLERMGLERMGANSLERMGLERMGANSLERMGPAMGPALGAGIERMGLAMGGGGGASFDRAIEMERGNFGGSFAGSFGGAGGHAPGVARKACQIFVRNLPFDFTWKMLKDKFNECGHVLYADIKMENGKSKGCGVVKFESPEVAERACRMMNGMKLSGREIDVRIDRNA
notes: hnRNPM, human; cloned in pGEX-6p-1; No cleavage of GST is told; the MST methods call the same preparation GST-hnRNPM, so the tag was probably still on the protein in the pull-down; source: E. coli BL21, purified (GST resins, eluted with reduced glutathione)

How the values were obtained:
GST-MDA5(280-1025) = test: MST; conditions: MST: PBS with 100 mM Tris-HCl pH 8.8, 20 nM Cy5-dsRNA, 25 C, GST as negative control, pull-down: HEK293 lysate, biotinylated RNA, streptavidin beads
Flag-RIG-I = test: MST; conditions: MST: PBS with 100 mM Tris-HCl pH 8.8, 20 nM Cy5-dsRNA, 25 C, GST as negative control, pull-down: HEK293 lysate, biotinylated RNA, streptavidin beads
GST-hnRNPM (human) = test: MST; conditions: MST: PBS with 100 mM Tris-HCl pH 8.8, 20 nM Cy5-dsRNA, 25 C, GST as negative control; pull-down: HEK293 lysate, biotinylated RNA, streptavidin beads
[1] = target: T1, Flag-RIG-I, purified from transfected …; test: pull-down; purified recombinant proteins incubated in PBS with RNase I at 4°C for 3 hours, then immunoprecipitated with anti-MDA5 and protein G beads or with anti-Flag affinity gel at 4°C for 2 hours; immunoblots; conditions: both partners purified
[2] = target: T2, recombinant MDA5 (280-1,025) …; test: as above; conditions: both partners purified

Row | Molecule | Kd (GST-MDA5(280-1025)) | binding signal (fold decrease of affinity) (GST-MDA5(280-1025); recombinant hnRNPM present) | Kd (Flag-RIG-I) | binding signal (fold decrease of affinity) (Flag-RIG-I; recombinant hnRNPM present) | Kd (GST-hnRNPM (human)) | binding result [1] | binding result [2]
1 | 25 bp dsRNA | 131 nM | 3 | 69 nM | 10 | 22.1 nM | – | –
2 | B1 | – | – | – | – | – | binds | binds
